Results from PMC5353646, “Allosteric modulation of peroxisomal membrane protein recognition by farnesylation of the peroxisomal import receptor PEX19” (Nature Communications, 2017).
“Also recorded” adds a separate entry of the source.

Experiments:
[1] = system: PEX19-deficient human fibroblasts (ΔPEX19 T); assay: Functional complementation of PEX19-deficient fibroblasts (peroxisomal protein import); assay type: cell-based; settings: full-length PEX19 variants, 72 h after transfection; for cells showing restored peroxisomal protein transport (functional complementation): at least 100 cells in three independent transfections, series of Fig. 3c
Text: A bicistronic expression plasmid coding for eGFP-PTS1 and non-tagged PEX14 (pMF1220)[43] was kindly provided by Marc Fransen (Leuven, Belgium). pIRES2-HsPEX19-eGFP-PTS1 was constructed by replacing the open reading frame of PEX14 (BglII/SalI) with a DNA-cassette encoding the full-length open reading frame of human PEX19 as derived from BamHI/SalI digestion of pAH05 (ref. [44]). Single point mutations were introduced into the PEX19 sequence by Quickchange XL Site-directed Mutagenesis kit (Stratagene) using primer pairs (Supplementary Table 1). The bicistronic expression vectors coding for PEX19 variants and eGFP-PTS1 were transfected into the human cell-line ΔPEX19 T which was derived from PEX19-deficient Zellweger patient fibroblasts. ΔPEX19 T cells, characterized by a defect in peroxisome biogenesis were routinely authenticated by functional complementation assays as described below and checked for mycoplasma contamination using Venor GeM Advance Mycoplasm Detection Kit (Minerva Biolabs). The efficiency of transfection according to the Amaxa Cell Line Nucleofector Kit R protocol (Lonza Cologne AG) was always around 90%. After 72 h of transfection, cells were subjected to fluorescence and immunofluorescence microscopy using polyclonal antiserum against human PEX14 (ref. [45]) (1:400 diluted) or monoclonal antibodies against human PEX19 (BD Biosciences, MA5-17266 Thermo Scientific; 1:400 diluted). Statistical analysis was carried out from three independent transfections of each pIRES-PEX19-eGFP-PTS1 expression plasmid. Based on the appearance of eGFP-PTS1 fluorescence pattern, about 100 cells of each experiment were visually categorized into three classes, (i) full complementation of peroxisomal import as visualized by punctuate staining pattern, (ii) partial complementation as indicated by diffuse cytosolic staining with few dots, (iii) no complementation resulting in only cytosolic staining. All micrographs were recorded on a Zeiss Axioplan 2 microscope with a Zeiss Plan-Apochromat × 63/1.4 oil objective and an Axiocam MR digital camera, and were processed with AxioVision 4.6 software (Zeiss, Jena, Germany). The steady-state level of PEX19 expression was assessed by immunoblot analysis, using monoclonal mouse antibodies against HsPEX19 (BD Biosciences, MA5-17266; 1:1,000 diluted) (Supplementary Fig. 9).

[2] = Hydrophobic interaction chromatography; assay type: physicochemical
Experimental: Purified PEX19 CTD and variants were adjusted to a buffer containing 650 mM (NH4)2SO4 and 500 μg protein was subjected to equilibrated Butyl Sepharose FF column (20 mM potassium phosphate, pH 6.5, 50 mM NaCl and 650 mM (NH4)2SO4). After washing, bound protein was eluted with linear decreasing (NH4)2SO4 concentrations (650–0 mM (NH4)2SO4, 20 ml). Eluted proteins were detected using 280 nm absorption. The binding strength is indicated by the elution volume and correlates with protein hydrophobicity.

[3] = Stability of purified protein in solution; assay type: physicochemical
[4] = system: PEX19-deficient human fibroblasts; assay: Immunoblot analysis of PEX19 variants in transfected fibroblasts; assay type: cell-based
Text: A bicistronic expression plasmid coding for eGFP-PTS1 and non-tagged PEX14 (pMF1220)[43] was kindly provided by Marc Fransen (Leuven, Belgium). pIRES2-HsPEX19-eGFP-PTS1 was constructed by replacing the open reading frame of PEX14 (BglII/SalI) with a DNA-cassette encoding the full-length open reading frame of human PEX19 as derived from BamHI/SalI digestion of pAH05 (ref. [44]). Single point mutations were introduced into the PEX19 sequence by Quickchange XL Site-directed Mutagenesis kit (Stratagene) using primer pairs (Supplementary Table 1). […] After 72 h of transfection, cells were subjected to fluorescence and immunofluorescence microscopy using polyclonal antiserum against human PEX14 (ref. [45]) (1:400 diluted) or monoclonal antibodies against human PEX19 (BD Biosciences, MA5-17266 Thermo Scientific; 1:400 diluted). […] Based on the appearance of eGFP-PTS1 fluorescence pattern, about 100 cells of each experiment were visually categorized into three classes, (i) full complementation of peroxisomal import as visualized by punctuate staining pattern, (ii) partial complementation as indicated by diffuse cytosolic staining with few dots, (iii) no complementation resulting in only cytosolic staining. […]

Molecule	functional complementation (in words) [1]	elution volume after start of the gradient ([2]; Butyl Sepharose FF, linear decreasing (NH4)2SO4 650–0 mM, 20 ml, 20 mM potassium phosphate, pH 6.5, 50 mM NaCl, 280 nm, 500 μg protein)	hydrophobic interaction chromatography, effect on hydrophobicity (in words) ([2]; farnesylated vs non-farnesylated, compared to wild type)	stability in solution after purification [3]	cells showing restored peroxisomal protein transport (functional complementation) [1]	cells showing restored peroxisomal protein transport (functional complementation) ([1]; listed as C296S)	expression and farnesylation in vivo [4]
M255R: PEX19 CTD variant M255R (helix α4) (protein, left off: His6, end not stated, cleaved) GMDEGDGEGNILPIMQSIMQNLLSKDVLYPSLKEITEKYPEWLQSHRESLPPEQFEKYQEQHSVMCKICEQFEAETPTDSETTQKARFEMVLDLRQQLQDLGHPPKELAGEMPPGLNFDLDALNLSGPPGASGEQCLIM	not capable of rescuing the ΔPEX19 phenotype; also recorded: completely abolishes PEX19 function	5.00 mL	most pronounced effects	not stable for long time in solution			
PEX19 C296S: full-length PEX19 variant which lacks the farnesylation site (protein, UniProt P40855 1-299, looked up, variant C296S, full-length) MAAAEEGCSVGAEADRELEELLESALDDFDKAKPSPAPPSTTTAPDASGPQKRSPGDTAKDALFASQEKFFQELFDSELASQATAEFEKAMKELAEEEPHLVEQFQKLSEAAGRVGSDMTSQQEFTSCLKETLSGLAKNATDLQNSSMSEEELTKAMEGLGMDEGDGEGNILPIMQSIMQNLLSKDVLYPSLKEITEKYPEWLQSHRESLPPEQFEKYQEQHSVMCKICEQFEAETPTDSETTQKARFEMVLDLMQQLQDLGHPPKELAGEMPPGLNFDLDALNLSGPPGASGEQSLIM	cannot fully restore PEX19 function				46%	50%	lacks the farnesylation site
